Test results taken from article PMC5752674, “Redox regulation of PEP activity during seedling establishment in Arabidopsis thaliana” (Nature Communications, 2018).

What was measured:
[1] = target: T1, PRIN2 (PLASTID REDOX INSENSITIVE2), recombinant without transit peptide (Arabidopsis thaliana) (UniProt Q9XIK0); test: competition EMSA; conditions: EMSA with 3 ug PRIN2 per reaction; buffer, salt, pH and temperature not given in the material
T1 sequence: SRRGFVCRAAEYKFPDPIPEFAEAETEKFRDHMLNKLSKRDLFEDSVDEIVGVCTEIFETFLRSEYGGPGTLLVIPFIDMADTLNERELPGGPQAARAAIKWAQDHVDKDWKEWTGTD

[2] = target: PRIN2 Cys115Ser (C2S) in transgenic prin2-2 + C2S lines (Arabidopsis thaliana) (UniProt Q9XIK0); test: SDS-PAGE with immunoblot; protein of transgenic prin2-2 lines with PRIN2 variants (Supplementary Figs. 4c and 5); conditions not shown
[3] = target: recombinant Arabidopsis PRIN2 WT (PLASTID REDOX …2), without the transit peptide (Arabidopsis thaliana) (UniProt Q9XIK0); test: non-reducing SDS-PAGE; purified recombinant protein (1 ug), untreated (air), with 5 mM DTT or other DTT concentrations, or with 2 mM H2O2; 15% polyacrylamide, nonreducing conditions, Coomassie Brilliant Blue; disulfide-linked dimer to monomers
[4] = target: PRIN2 in isolated chloroplasts of a 35S:PRIN2 line (Arabidopsis thaliana) (UniProt Q9XIK0); test: non-reducing SDS-PAGE with immunoblot; protein extracts of isolated chloroplasts (35S:PRIN2 line; WT plants kept in light or 48 h in the dark) or of Arabidopsis cell culture (dark, light, light with 10 mM H2O2, DCMU, MV, high light), nonreducing conditions, anti-PRIN2 polyclonal antibody
[5] = target: endogenous PRIN2 of Arabidopsis (Arabidopsis thaliana (endogenous in Col-0 plants and cell culture)) (UniProt Q9XIK0); test: as above
[6] = target: the molecule itself; test: SDS-PAGE with immunoblot; input protein extracts of protoplasts transformed with PRIN2-cMyc or TRXz-HA, probed with anti-cMyc or anti-HA; whether reducing or not is not stated
[7] = target: T2, PRIN2 (PLASTID REDOX …2), recombinant without transit peptide (Arabidopsis thaliana, UniProt Q9XIK0 62-179); test: EMSA; 3 ug protein; competed by 50-fold unlabeled ycf1; EMSA with 3 ug PRIN2 per reaction; buffer, salt, pH and temperature not given in the material; conditions: tags: His (pET-His1a), label: biotin 3' end (Biotin-14-dCTP), blunt
T2 sequence: T1 sequence

[8] = target: T2, PRIN2 (PLASTID REDOX …2), recombinant …; test: competition EMSA; 50-fold excess over labeled ycf1; EMSA with 3 ug PRIN2 per reaction; buffer, salt, pH and temperature not given in the material; conditions: protein: recombinant, tags: His (pET-His1a), label: none, blunt

GAAACAGTATAACATGACTTATATAGCCATGTCAACCAATGTAAAATGGATAAGATCCTTTTAGTTTAGATTCATAAAAAATTTTTTGTAATCGATGAAATAAATTAGAAGCGAATCCACATACATAGAAATAGAATTGCTCTAGGAATATTTTTTCCAAATCATATGAATACGATTGAATACGATCCGTAGTGGGT (double strand) [psbA promoter competitor (psbA_197)]
binding [1]: binds

PRIN2 Cys115Ser (C2S) in transgenic prin2-2 + C2S lines (from UniProt Q9XIK0 70-179) (natural protein)
stoichiometry N [2]: 2

recombinant Arabidopsis PRIN2 WT (PLASTID REDOX …2), without the transit peptide (from UniProt Q9XIK0 70-179) (natural protein)
stoichiometry N [3]: 2

PRIN2 in isolated chloroplasts of a 35S:PRIN2 line (from UniProt Q9XIK0 70-179) (natural protein)
stoichiometry N [4]: 2

endogenous PRIN2 of Arabidopsis (from UniProt Q9XIK0 70-179) (natural protein)
stoichiometry N [5]: 2

B1: PRIN2-cMyc (full-length PRIN2 fused to a cMyc tag) (natural protein, Arabidopsis thaliana, UniProt Q9XIK0 68-179, looked up)
chain: CRAAEYKFPDPIPEFAEAETEKFRDHMLNKLSKRDLFEDSVDEIVGVCTEIFETFLRSEYGGPGTLLVIPFIDMADTLNERELPGGPQAARAAIKWAQDHVDKDWKEWTGTD
notes: also called pRT104-PRIN2-cMyc; source: Arabidopsis Ler suspension culture protoplasts, transiently transformed, in protein extract
stoichiometry N [6]: 2

B2: TRXz-HA (full-length Thioredoxin z fused to an HA tag) (natural protein, Arabidopsis thaliana, UniProt Q9M7X9 82-183, looked up)
chain: AQELQELVKGDRKVPLIVDFYATWCGPCILMAQELEMLAVEYESNAIIVKVDTDDEYEFARDMQVRGLPTLFFISPDPSKDAIRTEGLIPLQMMHDIIDNEM
notes: also called pRT104-TRXz-HA; source: Arabidopsis Ler suspension culture protoplasts, transiently transformed, in protein extract
stoichiometry N [6]: 2

B3: ycf1 promoter probe (dsDNA)
DNA 1: CCATTCATTTAATATCCCTTTGGTGTCATTGACATAAGAGAT
DNA 2: ATCTCTTATGTCAATGACACCAAAGGGATATTAAATGAATGG
binding result [7]: binds

B4: rpoB promoter competitor (dsDNA)
DNA 1: TATGGTATGCAATCGAATTGGAATATGTAATATCATAGGTGAAAATGAAATTAC
DNA 2: GTAATTTCATTTTCACCTATGATATTACATATTCCAATTCGATTGCATACCATA
binding result [8]: binds

B5: clpP promoter competitor (dsDNA)
DNA 1: CGAAACCCCAATTTTACGTTTCCACATCAAAGTGAAATAGAGAA
DNA 2: TTCTCTATTTCACTTTGATGTGGAAACGTAAAATTGGGGTTTCG
binding result [8]: binds

B6: psaA U region competitor (dsDNA)
DNA 1: TTTTTTAATTATAAAAAAGGGTCCGTTGAGCACCCTATCCAT
DNA 2: ATCCATAGGGTGCTCAACGGACCCTTTTTTATAATTAAAAAA
binding result ([8]; as printed, strands mismatch near the 3' end of strand 1 (possible misprint)): binds
